According to patent publication US20100004431A1 (Xencor, published 2010):
Where a chain is given by its changes, count along the chain named. Numbers in names are those of the source.

B1: Anti-TNFα H1.103L1.33 (Fab, V domains shown)
VH: EVQLVESGGGLVQPGGSLKLSCAASGFIFSNHWMNWVRQASGKGLEWVGEIRSKANNYATHYAASVKGRFTISRDDSKNTAYLQMNSLKTEDTAVYYCSRNYYGSTYDYWGQGTLVTVSS
VL: EIVLTQSPDFQSVTPKEKVTITCRASQFIGSSLHWYQQKPDQSPKLLIKYASESFSGVPSRFSGSGSGTDFTLTINSLEAEDAATYYCQQSHSWPFTFGSGTKLEIK
notes: Fab format; It has thirteen more mutations than anti-TNFα H1L1; also called anti-TNF H1.103L1.33
B2: Anti-TNFα H1.101L1.33 (Fab, V domains shown)
VH: B1 VH with N56I, A64E, N79S
VL: B1 VL
notes: Fab format
B3: Anti-TNFα H1.45L1.33 (Fab, V domains shown)
VH: B1 VH with N56I, A64E, N79S, T80I, A81V
VL: B1 VL
notes: Fab format
B4: Anti-TNFα H1.67L1.33 (Fab, V domains shown)
VH: B1 VH with I28T, N56I, N57S
VL: B1 VL
notes: Fab format
B5: anti-CD25 H0L0 (antibody, V domains shown)
VH: QVQLQQSGAELAKPGASVKMSCKASGYTFTSYRMHWVKQRPGQGLEWIGYINPSTGYTEYNQKFKDKATLTADKSSSTAYMQLSSLTFEDSAVYYCARGGGVFDYWGQGTTLTVSS
VL: QIVLTQSPAIMSASPGEKVTITCSASSSISYMHWFQQKPGTSPKLWIYTTSNLASGVPARFSGSGSGTSYSLTISRMEAEDAATYYCHQRSTYPLTFGSGTKLELK
notes: Chimeric form of the anti-TAC antibody, in IgG1 format; also called chimeric anti-CD25 H0L0; anti-TAC H0L0
B6: anti-VEGF H1.33L1.51 (Fab, V domains shown)
VH: QVQLVQSGSELKKPGASVKVSCKASGYTFTNYGMNWVRQAPGQGLEWMGWINTYTGNPTYAQGFTGRFVFSLDTSVSTAYLQISSLKAEDTAVYYCAKYPHYYGSSHWYFDVWGAGTLVTVSS
VL: DIQMTQSPSSLSASVGDRVTITCQASQDISNYLNWYQQKPGKAPKVLIYFTSSLHSGVPSRFSGSGSGTDYTLTISSLQPEDFATYYCQQYDNLPWTFGGGTKLEIK
notes: Fab format, purified by Ni-NTA chromatography
B7: anti-VEGF H1.33L1.55 (Fab, V domains shown)
VH: B6 VH
VL: B6 VL with T51A, S53N, H55E, S56T
notes: as for B6
B8: anti-CD25 H1.12L1.20 (antibody, V domains shown)
VH: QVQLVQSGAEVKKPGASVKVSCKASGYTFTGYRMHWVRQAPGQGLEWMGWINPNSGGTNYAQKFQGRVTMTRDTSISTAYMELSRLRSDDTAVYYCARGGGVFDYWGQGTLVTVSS
VL: EIVLTQSPATLSLSPGERATLSCRASQSVSYLHWYQQKPGQAPRLLIYTTSNRATGIPARFSGSGSGTDFTLTISSLEPEDFAVYYCHQRSTYPLTFGSGTKLEIK
notes: IgG1 format; It has twenty-two mutations against anti-CD25 H1L1; copies: 2 + 2
B9: anti-CD25 H1.23L1.43 (antibody, IgG1, V domains shown)
VH: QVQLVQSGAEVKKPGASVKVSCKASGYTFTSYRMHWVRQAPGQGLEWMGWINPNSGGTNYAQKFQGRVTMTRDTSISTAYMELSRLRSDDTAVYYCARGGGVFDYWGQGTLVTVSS
VL: B8 VL with F70Y, E78Q
notes: IgG1 format
B10: anti-CD25 H1L1.9 (antibody, V domains shown)
VH: QVQLVQSGAEVKKPGASVKVSCKASGYTFTSYRMHWVRQAPGQGLEWMGYINPSTGYTEYNQKFQGRVTITADKSISTAYMELSRLRSDDTAVYYCARGGGVFDYWGQGTLVTVSS
VL: QIVLTQSPATLSLSPGERATLSCRASSSISYMHWFQQKPGQAPQLLIYTTSNLASGVPARFSGSGSGTDYTLTISSLQPEDFAVYYCHQRSTYPLTFGSGTKLEIK
notes: Single variant in the anti-CD25 H1L1 background; also called VL S43A single variant
B11: anti-CD25 H1L1.13 (antibody, V domains shown)
VH: B10 VH
VL: B10 VL with A42S, V57I
notes: Single variant in the anti-CD25 H1L1 background; also called VL V58I single variant
B12: anti-CD25 H1L1.14 (antibody, V domains shown)
VH: B10 VH
VL: B10 VL with A42S, Y70F
notes: Single variant in the anti-CD25 H1L1 background; also called VL Y71F single variant
B13: anti-CD25 H1L1.16 (antibody, V domains shown)
VH: B10 VH
VL: B10 VL with F35Y, A42S
notes: Single variant in the anti-CD25 H1L1 background; also called VL F36Y single variant
B14: anti-VEGF H0L0 (Fab, V domains shown)
VH: EIQLVQSGPELKQPGETVRISCKASGYTFTNYGMNWVKQAPGKGLKWMGWINTYTGEPTYAADFKRRFTFSLETSASTAYLQISNLKNDDTATYFCAKYPHYYGSSHWYFDVWGAGTTVTVSS
VL: DIQMTQTTSSLSASLGDRVIISCSASQDISNYLNWYQQKPDGTVKVLIYFTSSLHSGVPSRFSGSGSGTDYSLTISNLEPEDIATYYCQQYSTVPWTFGGGTKLEIK
notes: also called anti-VEGF H0L0 (murine Fv); murine A4.6.1 Fv
B15: Anti-TNFα H1L1 (Fab, V domains shown)
VH: B1 VH with A55S, N56I, Y58S, A64E, N79S, T80I, A81V
VL: B1 VL with E1D, V3L, I29V, L33I, F55M, V58I
notes: Fab format, purified by Ni-NTA chromatography; also called framework optimized anti-TNFα H1L1
B16: anti-CD25 H1.12L1 (antibody, IgG1, V domains shown)
VH: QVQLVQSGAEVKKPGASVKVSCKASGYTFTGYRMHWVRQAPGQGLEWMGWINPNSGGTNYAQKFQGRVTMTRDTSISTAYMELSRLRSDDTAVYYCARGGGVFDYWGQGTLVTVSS
VL: B10 VL with A42S
notes: IgG1 format
B17: anti-CD25 H1.14L1 (antibody, IgG1, V domains shown)
VH: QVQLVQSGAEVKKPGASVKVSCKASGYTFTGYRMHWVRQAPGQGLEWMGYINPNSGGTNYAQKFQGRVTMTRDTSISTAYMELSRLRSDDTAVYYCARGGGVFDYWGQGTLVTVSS
VL: B10 VL with A42S
notes: IgG1 format
B18: anti-CD25 H1.22L1 (antibody, IgG1, V domains shown)
VH: B10 VH with Y50W, S54N, T55S, Y57G, E59N, N61A, A72R, K74T
VL: B10 VL with A42S
notes: IgG1 format
B19: anti-CD25 H1.23L1 (antibody, IgG1, V domains shown)
VH: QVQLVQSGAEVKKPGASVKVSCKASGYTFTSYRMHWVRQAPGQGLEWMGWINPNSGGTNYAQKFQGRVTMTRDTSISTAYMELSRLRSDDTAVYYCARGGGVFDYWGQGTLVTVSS
VL: B10 VL with A42S
notes: IgG1 format
B20: anti-CD25 H1.12L1.48 (antibody, IgG1, V domains shown)
VH: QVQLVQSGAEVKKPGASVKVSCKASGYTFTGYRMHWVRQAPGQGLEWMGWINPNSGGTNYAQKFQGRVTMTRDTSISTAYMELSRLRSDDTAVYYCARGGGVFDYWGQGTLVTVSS
VL: B8 VL with L32M
notes: IgG1 format
B21: anti-CD25 H1.14L1.20 (antibody, IgG1, V domains shown)
VH: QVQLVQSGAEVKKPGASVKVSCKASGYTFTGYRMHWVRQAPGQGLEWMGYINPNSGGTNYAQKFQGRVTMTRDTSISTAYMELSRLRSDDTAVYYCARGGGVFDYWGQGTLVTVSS
VL: B8 VL
notes: IgG1 format

target: T1, TNFα (UniProt P01375 77-233); test: Biacore (SPR); Fab injected over immobilized TNFα
T1 sequence (P01375 77-233 limits assumed): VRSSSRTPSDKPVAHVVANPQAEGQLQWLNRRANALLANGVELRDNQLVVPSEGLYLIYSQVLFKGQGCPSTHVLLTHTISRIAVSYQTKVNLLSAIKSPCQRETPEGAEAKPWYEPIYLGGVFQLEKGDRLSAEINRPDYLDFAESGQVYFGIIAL
Experimental: (§1) For kinetic analysis of anti-TNFα antibodies, TNFα was coupled to an activated CM5 biosensor chip using standard NHS-EDC chemistry by injecting 200 nM TNFα at a flow rate of 2 μL/min for 10 min. […] For subsequent cycles, the chip was regenerated using pH4.0 acetate buffer. Association rates (kₒₙ) and dissociation rates (koff) were calculated using a simple one-to-one Langmuir binding model (BIAcore Evaluation Software version 3.2). The equilibrium dissociation constant (Kd) was calculated as the ratio of koff/kₒₙ.

For B1, the “Fold affinity change relative to H0L0” value was -1.3 fold.

target: T1, TNFα; test: SPR (Biacore), TNFα on CM5 chip, Fab injected
Experimental: as §1

B2 and B3 cannot be ordered by “fold difference in affinity against the chimeric antibody anti-TNFα H0L0” value: at most 3 fold for the first, at most 3 fold for the second.

B4 and B1 cannot be ordered by “fold difference in affinity against the chimeric antibody anti-TNFα H0L0” value: at most 3 fold for the first, at most 3 fold for the second.

target: T2, CD25 (R&D systems cat. #223-2A/CF) (UniProt P01589 22-213, limits assumed); test: SPR (Biacore), antibody captured on Protein A, CD25 injected; separate runs
T2 construct: Bought soluble protein
T2 sequence (looked up): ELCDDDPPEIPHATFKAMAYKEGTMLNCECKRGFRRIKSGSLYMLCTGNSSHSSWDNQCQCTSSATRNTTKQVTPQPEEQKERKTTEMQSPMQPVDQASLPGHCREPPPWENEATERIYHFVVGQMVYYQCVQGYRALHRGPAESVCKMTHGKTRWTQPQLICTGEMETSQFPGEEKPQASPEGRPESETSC
Experimental: (§2) Binding was measured by injection of two-fold serial dilutions of CD25 (0 nM to 50 nM; R&D systems) in buffer at 25° C. with a flow rate of 25-30 μL/min for 2 min followed by a dissociation phase of 4-5 min. Association rates (kₒₙ) and dissociation rates (koff) were calculated using a simple one-to-one Langmuir binding model (BIAcore Evaluation Software version 3.2). The equilibrium dissociation constant (Kd) was calculated as the ratio of koff/kₒₙ).

B5 showed a Kd of 0.09 to 0.3 nM.

target: T3, VEGF (UniProt P15692-4 27-191, limits assumed); test: SPR (Biacore), VEGF on CM5 chip, Fab injected
T3 sequence (P15692 other isoform, or with tags, fused parts or gaps limits assumed): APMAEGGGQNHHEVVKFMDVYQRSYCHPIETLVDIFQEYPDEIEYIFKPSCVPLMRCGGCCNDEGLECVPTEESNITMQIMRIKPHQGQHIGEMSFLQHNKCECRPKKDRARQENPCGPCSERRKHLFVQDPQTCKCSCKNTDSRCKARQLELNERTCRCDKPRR
Experimental: (§3) For kinetic analysis of anti-VEGF antibodies, VEGF was coupled to an activated CM5 biosensor chip using standard NHS-EDC chemistry by injecting 200 nM VEGF at a flow rate of 2 μL/min for 10 min. […] Association rates (kₒₙ) and dissociation rates (koff) were calculated using a simple one-to-one Langmuir binding model (BIAcore Evaluation Software version 3.2). The equilibrium dissociation constant (Kd) was calculated as the ratio of koff/kₒₙ.

B6 and B7 cannot be ordered by “fold difference in affinity against the chimeric antibody anti-VEGF H0L0” value: at most 3 fold for the first, at most 3 fold for the second.

target: T2, CD25 (R&D systems cat. #223-2A/CF); test: Biacore blocking assay; antibody injected over CD25 coupled to a CM5 chip, then 100 nM rh-IL2; blocked ligand IL-2
Experimental: The chip was regenerated after each cycle by injection of glycine buffer @ pH 1.5 for 30 sec at 10 μL/min.

B5 and B8 are the same in “IC50 (read off the curve)” value: about 40 nM for the first, about 40 nM for the second.

B9 was tested, and the “IC50 (read off the curve)” value was about 40 nM.

target: T2, CD25 (R&D systems cat. #223-2A/CF); test: Biacore (SPR); antibody captured on Protein A, CD25 injected
Experimental: as §2

Going from B5 to B10, the Kd rises from 0.09 nM to 0.31 nM (3.4-fold).

B11 and B12 are within 1.5-fold of each other in Kd: 0.35 nM for the first, 0.27 nM for the second.

B13 showed a Kd of 0.26 nM.

Going from B5 to B10, the koff rises from 0.00013 s⁻¹ to 0.00058 s⁻¹ (4.5-fold).

B11 and B12 are within 1.5-fold of each other in koff: 0.0006 s⁻¹ for the first, 0.00048 s⁻¹ for the second.

In the case of B13, the koff is reported as 0.00042 s⁻¹.

B5 and B10 are within 1.5-fold of each other in kon: 1.6e+06 M⁻¹ s⁻¹ for the first, 1.9e+06 M⁻¹ s⁻¹ for the second.

B11 and B12 are within 1.5-fold of each other in kon: 1.7e+06 M⁻¹ s⁻¹ for the first, 1.8e+06 M⁻¹ s⁻¹ for the second.

For B13, the kon was 1.6e+06 M⁻¹ s⁻¹.

First: B10
Second: B11
The “Fold change in Kd vs. H1L1” value of the first is higher: 1 fold for the first, -1.1 fold for the second.

B12 and B13 are the same in “Fold change in Kd vs. H1L1” value: 1.2 fold for the first, 1.2 fold for the second.

target: T3, VEGF; test: Biacore (SPR); Fab injected over immobilized VEGF
Experimental: as §3

With B7 the “Fold affinity change relative to H0L0” value was -2.7 fold.

target: T3, VEGF; test: Biacore (SPR); Fab injected over immobilized VEGF; remark: another data set of the same source
Experimental: as §3

Going from B14 to B6, the Kd rises from 1.4 nM to 3.5 nM (2.5-fold).

Binder B7 has a Kd of 3.8 nM.

Compared with B14, B6 is 1.7-fold higher in koff: 0.00017 s⁻¹ for the first, 0.00029 s⁻¹ for the second.

B7 was tested, and the koff was 0.00028 s⁻¹.

First: B14
Second: B6
The kon of the first is 1.6-fold higher: 134000 M⁻¹ s⁻¹ for the first, 83000 M⁻¹ s⁻¹ for the second.

B7 gave a kon of 80000 M⁻¹ s⁻¹.

Going from B6 to B7, the “Fold change in Kd vs. H0L0” value falls from -2.5 fold to -2.7 fold.

target: T1, TNFα; test: SPR (Biacore), TNFα on CM5 chip, Fab injected; mean of two runs ± SD
Experimental: as §1

Going from B2 to B3, the Kd falls from 3.9 nM to 1.8 nM (2.2-fold). The second binds more tightly here.

B4 and B1 are within 1.5-fold of each other in Kd: 3.8 nM for the first, 3.1 nM for the second.

B15 gave a Kd of 1.9 nM.

B2 and B3 are within 1.5-fold of each other in koff: 0.000874 s⁻¹ for the first, 0.00087 s⁻¹ for the second.

B4 and B1 are within 1.5-fold of each other in koff: 0.000776 s⁻¹ for the first, 0.00092 s⁻¹ for the second.

With B15 the koff was 0.00116 s⁻¹.

Going from B2 to B3, the kon rises from 223000 M⁻¹ s⁻¹ to 489000 M⁻¹ s⁻¹ (2.2-fold).

B4 and B1 are within 1.5-fold of each other in kon: 200000 M⁻¹ s⁻¹ for the first, 292000 M⁻¹ s⁻¹ for the second.

B15 was tested, and the kon was 605000 M⁻¹ s⁻¹.

target: T2, CD25 (R&D systems cat. #223-2A/CF); test: SPR (Biacore)
Experimental: as §2

Compared with B16, B17 is lower in “fold tighter binding than anti-CD25 H1L1” value: 8 fold for the first, 2.4 fold for the second.

Going from B18 to B19, the “fold tighter binding than anti-CD25 H1L1” value falls from 4.9 fold to 4.4 fold.

Going from B20 to B21, the “fold tighter binding than anti-CD25 H1L1” value falls from 5.9 fold to 1.8 fold.

With B8 the “fold tighter binding than anti-CD25 H0L0” value was about 1.5 fold.

target: T2, CD25 (R&D systems cat. #223-2A/CF); test: Biacore (SPR); antibody captured on Protein A, CD25 injected; remark: another data set of the same source
Experimental: as §2

Compared with B5, B16 is 2.4-fold lower in Kd: 0.26 nM for the first, 0.11 nM for the second.

First: B17
Second: B18
The Kd of the first is 2-fold higher: 0.36 nM for the first, 0.18 nM for the second.

B19 and B8 are within 1.5-fold of each other in Kd: 0.2 nM for the first, 0.17 nM for the second.

Going from B20 to B21, the Kd rises from 0.15 nM to 0.49 nM (3.3-fold). The first binds more tightly here.

B9 gave a Kd of 0.16 nM.

Compared with B5, B16 is 1.5-fold lower in koff: 0.00018 s⁻¹ for the first, 0.00012 s⁻¹ for the second.

First: B17
Second: B18
The koff of the first is 1.6-fold higher: 0.00028 s⁻¹ for the first, 0.00017 s⁻¹ for the second.

B19 and B8 are within 1.5-fold of each other in koff: 0.00019 s⁻¹ for the first, 0.00013 s⁻¹ for the second.

Compared with B20, B21 is 2.4-fold higher in koff: 0.00012 s⁻¹ for the first, 0.00029 s⁻¹ for the second.

Work on B9 yielded a koff of 0.00012 s⁻¹.

First: B5
Second: B16
The kon of the first is 1.6-fold lower: 670000 M⁻¹ s⁻¹ for the first, 1.1e+06 M⁻¹ s⁻¹ for the second.

B17 and B18 are within 1.5-fold of each other in kon: 770000 M⁻¹ s⁻¹ for the first, 980000 M⁻¹ s⁻¹ for the second.

B19 and B8 are within 1.5-fold of each other in kon: 950000 M⁻¹ s⁻¹ for the first, 750000 M⁻¹ s⁻¹ for the second.

B20 and B21 are within 1.5-fold of each other in kon: 800000 M⁻¹ s⁻¹ for the first, 580000 M⁻¹ s⁻¹ for the second.

In the case of B9, the kon is reported as 730000 M⁻¹ s⁻¹.

Going from B16 to B17, the “Fold change in Kd vs. H0L0” value falls from 2.3 fold to -1.4 fold.

First: B18
Second: B19
The “Fold change in Kd vs. H0L0” value of the first is higher: 1.5 fold for the first, 1.3 fold for the second.

Compared with B20, B21 is lower in “Fold change in Kd vs. H0L0” value: 1.7 fold for the first, -1.9 fold for the second.

With B9 the “Fold change in Kd vs. H0L0” value was 1.6 fold.
